Laboratory results published in patent US10398760B2, “Method of treating pain using agents that promote neuronal differentiation” (priority 2016, dated 2019).
“Also recorded” adds a separate entry of the source.

Key:
[1] = tested on: rats subjected to chronic constriction injury of the sciatic nerve (CCI) or Sham surgery; assay: Mechanical nociceptive sensitivity (von Frey filaments) in CCI and Sham rats; format: in vivo, rat
[2] = tested on: rats subjected to chronic constriction injury of the sciatic nerve (CCI) or Sham surgery; assay: Thermal nociceptive sensitivity (Hargreaves method, radiant heat withdrawal latency) in CCI and Sham rats; format: in vivo, rat
[3] = tested on: Mash1, DCX and Notch3 expression in spinal cord gray matter; assay: Immunofluorescence quantification of immature neuron markers in spinal cord gray matter; format: in vivo, rat; conditions: vs CCI+Veh
[4] = tested on: human with chronic pain as a result of injury; assay: Use of Dihexa to treat chronic pain in a human (numeric rating scale, dolorimetric); format: in vivo; conditions: oral; for pain reported by the subject: 200 miligrams/day
Protocol: Dihexa (N-hexanoic-Tyr-Ile-(6)aminohexanoic amide), an activator of c-Met receptor, is administered orally, 200 miligrams/day for 4 weeks, to a human for the purpose of treating pain. The subject is having chronic pain for the previous 6 months, as a result of injury. Before the beginning of treatment, and weekly thereafter for 6 months, the subject is tested for pain levels using a combination of subjective (numeric rating scale) and physiological (dolorimetric) evaluation methods.

[5] = tested on: human patient diagnosed with fibromyalgia; assay: Use of NT4 to treat pain in a human patient diagnosed with fibromyalgia; format: in vivo; conditions: for pain reported by the patient: injected into the spinal canal every other day for 3 weeks
Protocol: NT4 is a TrkB ligand and inducer of neuronal differentiation that may be used to treat pain. NT4 (200 microliters, 1 microgram/ml) is injected every other day for 3 weeks (10 injections total) into the spinal canal of a human patient diagnosed with fibromyalgia. […] To prevent pain reoccurrence, a maintenance dose of 7,8-dihydroxy-4′-dimethylaminoflavone-8-O-glucozide (3-4 grams per day for 4-5 consecutive days) may be administered every month.

[6] = intraperitoneal DHF treatment delayed for 3 weeks after CCI
[7] = intrathecal BDNF treatment delayed for 3 weeks after CCI
[8] = intrathecal injection every other day for first 3 weeks after CCI/Sham surgery, tested weekly, vs vehicle

O=c1cc(-c2ccccc2)oc2c(O)c(O)ccc12 [DHF, 7,8-dihydroxyflavone, reference compound]
duration of the decrease in pain ([1]; DHF intraperitoneal treatment applied for only 3 weeks): 3 months
long-term mechanical pain sensitivity [1, 6]: extended long-term decrease in mechanical and thermal pain susceptibility; also recorded: long-term decrease in pain sensitivity
mechanical pain sensitivity / mechanical pain threshold ([1]; intraperitoneal injection every other day for 3 weeks immediately after CCI/Sham surgery, vs vehicle): reduces long-term mechanical pain susceptibility; also recorded: long-term increase in mechanical pain threshold (decrease in pain sensitivity)
long-term thermal pain sensitivity [2, 6]: extended long-term decrease in mechanical and thermal pain susceptibility; also recorded: long-term decrease in pain sensitivity
expression of immature neuron markers Mash1, DCX and Notch3 ([3]; intraperitoneal injection every other day for 3 weeks after CCI, spinal cords taken after 4 weeks): reduces the expression of Mash1, DCX and Notch3; also recorded: reducing the expression of all three markers

N-hexanoic-Tyr-Ile-(6)aminohexanoic amide [Dihexa]
time until increased pain sensitivity may reoccur ([4]; 200 miligrams/day for 4 weeks): 3 months
pain reported by the subject ([4]; after 2 weeks of treatment): decreased pain
pain reported by the subject ([4]; after 4 weeks of treatment): pain sensitivity is back to normal levels

B1: BDNF: brain-derived neurotrophic factor, TrkB ligand and promoter of neuronal differentiation, injected intrathecally (protein)
chain: HSDPARRGELSVCDSISEWVTAADKKTAVDMSGGTVTVLEKVPVSKGQLKQYFYETKCNPMGYTKEGCRGIDKRHWNSQCRTTQSYVRALTMDSKKRIGWRFIRIDTSCVCTLTIKRGR
duration of the decrease in pain ([1]; BDNF intrathecal treatment applied for only 3 weeks): 3 months
long-term mechanical pain sensitivity [1, 7]: long-term reduction in pain and pain susceptibility; also recorded: long-term decrease in pain sensitivity
mechanical nociceptive (pain) sensitivity / mechanical pain threshold [1, 8]: reduction in mechanical pain susceptibility (increased pain threshold); also recorded: long-term increase in mechanical pain threshold (decrease in pain sensitivity)
initial short-term increase in thermal pain sensitivity (duration) [2, 7]: 2 to 3 days
long-term thermal pain sensitivity [2, 7]: reduced thermal pain susceptibility; also recorded: long-term decrease in pain sensitivity
thermal nociceptive (pain) sensitivity [2, 8]: may increase long-term sensitivity to thermal pain; also recorded: increased long-term thermal pain sensitivity
expression of immature neuron markers Mash1, DCX and Notch3 ([3]; intrathecal injection every other day for 3 weeks after CCI, spinal cords taken at week 4): reduction in the expression of Mash1, DCX and Notch3; also recorded: reducing the expression of all three markers

B2: NT4: neurotrophin 4, a TrkB ligand and inducer of neuronal differentiation (protein)
chain: GVSETAPASRRGELAVCDAVSGWVTDRRTAVDLRGREVEVLGEVPAAGGSPLRQYFFETRCKADNAEEGGPGAGGGGCRGVDRRHWVSECKAKQSYVRALTADAQGRVGWRWIRIDTACVCTLLSRTGRA
pain reported by the patient ([5]; after 2 weeks): decreased pain
pain reported by the patient ([5]; after 3-4 weeks): no pain
pain reported by the patient ([5]; after 4-5 days): increased pain
time after which the increase in pain subsides ([5]; injected into the spinal canal every other day, with continued treatment): 7 to 10 days
